Measurements as given in the supplement of paper PMC10567573.

B1: PDZK1 (parent)
chain: QKEQGLSDNILSPVMNGGVQTWTQ
B2: KRT34 (parent)
chain: YQSYFKTIEELQQKILCAKAENAR

Variants of: B1
Assay: protein stability index of a GFP-peptide fusion (GPS, HEK-293T) (PSI 1-6); higher = more stable
Conditions: c terminus: a fixed tail appended
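Further: lentivirally expressed fusions sorted by FACS into six bins by GFP to DsRed ratio, PSI derived from sequencing read proportions per bin multiplied by bin number.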

Compared with QSEQGLSDNILSPVMNGGVQTWTQ [K2S], QPEQGLSDNILSPVMNGGVQTWTQ [K2P] is lower in protein stability index: 3.13 for the first, 2.67 for the second.

First: QDEQGLSDNILSPVMNGGVQTWTQ [K2D]
Second: QREQGLSDNILSPVMNGGVQTWTQ [K2R]
The protein stability index of the first is higher: 3.23 for the first, 3.05 for the second.

Going from QEEQGLSDNILSPVMNGGVQTWTQ [K2E] to QGEQGLSDNILSPVMNGGVQTWTQ [K2G], the protein stability index falls from 3.35 to 2.76.

First: QIEQGLSDNILSPVMNGGVQTWTQ [K2I]
Second: QMEQGLSDNILSPVMNGGVQTWTQ [K2M]
The protein stability index of the first is lower: 2.42 for the first, 2.51 for the second.

First: QYEQGLSDNILSPVMNGGVQTWTQ [K2Y]
Second: QQEQGLSDNILSPVMNGGVQTWTQ [K2Q]
The protein stability index of the first is higher: 3.24 for the first, 3.15 for the second.

Compared with QKGQGLSDNILSPVMNGGVQTWTQ [E3G], QKPQGLSDNILSPVMNGGVQTWTQ [E3P] is higher in protein stability index: 1.82 for the first, 2.93 for the second.

Going from QKLQGLSDNILSPVMNGGVQTWTQ [E3L] to QKTQGLSDNILSPVMNGGVQTWTQ [E3T], the protein stability index rises from 2.12 to 2.88.

Going from QKVQGLSDNILSPVMNGGVQTWTQ [E3V] to QKMQGLSDNILSPVMNGGVQTWTQ [E3M], the protein stability index rises from 2.05 to 2.61.

Going from QKYQGLSDNILSPVMNGGVQTWTQ [E3Y] to QKKQGLSDNILSPVMNGGVQTWTQ [E3K], the protein stability index rises from 1.68 to 4.26.

Going from QKIQGLSDNILSPVMNGGVQTWTQ [E3I] to QKQQGLSDNILSPVMNGGVQTWTQ [E3Q], the protein stability index falls from 2.67 to 2.18.

First: QKFQGLSDNILSPVMNGGVQTWTQ [E3F]
Second: QKCQGLSDNILSPVMNGGVQTWTQ [E3C]
The protein stability index of the first is lower: 1.67 for the first, 2.05 for the second.

First: QKRQGLSDNILSPVMNGGVQTWTQ [E3R]
Second: QKHQGLSDNILSPVMNGGVQTWTQ [E3H]
The protein stability index of the first is lower: 1.52 for the first, 2.24 for the second.

Going from QKSQGLSDNILSPVMNGGVQTWTQ [E3S] to QKDQGLSDNILSPVMNGGVQTWTQ [E3D], the protein stability index rises from 2.02 to 3.51.

Compared with QKWQGLSDNILSPVMNGGVQTWTQ [E3W], QKAQGLSDNILSPVMNGGVQTWTQ [E3A] is higher in protein stability index: 2.17 for the first, 3.02 for the second.

Compared with QKEQGLSDNCLSPVMNGGVQTWTQ [I10C], QKEQGLSDNNLSPVMNGGVQTWTQ [I10N] is higher in protein stability index: 3.03 for the first, 3.43 for the second.

First: QKEQGLSDNHLSPVMNGGVQTWTQ [I10H]
Second: QKEQGLSDNMLSPVMNGGVQTWTQ [I10M]
The protein stability index of the first is higher: 2.96 for the first, 2.67 for the second.

Compared with QKEQGLSDNKLSPVMNGGVQTWTQ [I10K], QKEQGLSDNELSPVMNGGVQTWTQ [I10E] is higher in protein stability index: 3.02 for the first, 3.89 for the second.

Compared with QKEQGLSDNYLSPVMNGGVQTWTQ [I10Y], QKEQGLSDNVLSPVMNGGVQTWTQ [I10V] is lower in protein stability index: 2.6 for the first, 2.56 for the second.

Compared with QKEQGLSDNQLSPVMNGGVQTWTQ [I10Q], QKEQGLSDNALSPVMNGGVQTWTQ [I10A] is lower in protein stability index: 3.34 for the first, 2.89 for the second.

Going from QKEQGLSDNGLSPVMNGGVQTWTQ [I10G] to QKEQGLSDNRLSPVMNGGVQTWTQ [I10R], the protein stability index falls from 2.83 to 2.35.

Compared with QKEQGLSDNFLSPVMNGGVQTWTQ [I10F], QKEQGLGDNILSPVMNGGVQTWTQ [S7G] is higher in protein stability index: 2.04 for the first, 3.19 for the second.

Compared with QKEQGLCDNILSPVMNGGVQTWTQ [S7C], QKEQGLTDNILSPVMNGGVQTWTQ [S7T] is lower in protein stability index: 3.27 for the first, 2.09 for the second.

Compared with QKEQGLMDNILSPVMNGGVQTWTQ [S7M], QKEQGLFDNILSPVMNGGVQTWTQ [S7F] is lower in protein stability index: 2.68 for the first, 2 for the second.

Compared with QKEQGLKDNILSPVMNGGVQTWTQ [S7K], QKEQGLIDNILSPVMNGGVQTWTQ [S7I] is higher in protein stability index: 2.18 for the first, 2.48 for the second.

Compared with QKEQGLDDNILSPVMNGGVQTWTQ [S7D], QKEQGLQDNILSPVMNGGVQTWTQ [S7Q] is lower in protein stability index: 2.54 for the first, 2.13 for the second.

First: QKEQGLYDNILSPVMNGGVQTWTQ [S7Y]
Second: QKEQGLEDNILSPVMNGGVQTWTQ [S7E]
The protein stability index of the first is lower: 2.12 for the first, 3.43 for the second.

First: QKEQGLADNILSPVMNGGVQTWTQ [S7A]
Second: QKEQGLNDNILSPVMNGGVQTWTQ [S7N]
The protein stability index of the first is lower: 2.51 for the first, 2.77 for the second.

Compared with QKEQGLPDNILSPVMNGGVQTWTQ [S7P], QKERGLSDNILSPVMNGGVQTWTQ [Q4R] is higher in protein stability index: 3.36 for the first, 3.73 for the second.

First: QKENGLSDNILSPVMNGGVQTWTQ [Q4N]
Second: QKETGLSDNILSPVMNGGVQTWTQ [Q4T]
The protein stability index of the first is lower: 2.29 for the first, 2.78 for the second.

Compared with QKEWGLSDNILSPVMNGGVQTWTQ [Q4W], QKEDGLSDNILSPVMNGGVQTWTQ [Q4D] is higher in protein stability index: 1.85 for the first, 3.67 for the second.

Going from QKECGLSDNILSPVMNGGVQTWTQ [Q4C] to QKEMGLSDNILSPVMNGGVQTWTQ [Q4M], the protein stability index falls from 2.08 to 1.82.

Compared with QKEPGLSDNILSPVMNGGVQTWTQ [Q4P], QKEYGLSDNILSPVMNGGVQTWTQ [Q4Y] is lower in protein stability index: 2.64 for the first, 1.98 for the second.

Compared with QKELGLSDNILSPVMNGGVQTWTQ [Q4L], QKEEGLSDNILSPVMNGGVQTWTQ [Q4E] is higher in protein stability index: 2.14 for the first, 2.85 for the second.

First: QKEVGLSDNILSPVMNGGVQTWTQ [Q4V]
Second: QKEKGLSDNILSPVMNGGVQTWTQ [Q4K]
The protein stability index of the first is higher: 2.52 for the first, 2.08 for the second.

First: QKEHGLSDNILSPVMNGGVQTWTQ [Q4H]
Second: QKEFGLSDNILSPVMNGGVQTWTQ [Q4F]
The protein stability index of the first is higher: 2.61 for the first, 2.21 for the second.

Variants of: B2
Assay: as above
Conditions: c terminus: a fixed tail appended

Going from YQSYFKRIEELQQKILCAKAENAR [T7R] to YQSYFKTIEELQQKILCAKAENAD [R24D], the protein stability index falls from 1.86 to 1.16.

Going from YQSYFKTIEELQQKILCAKAENAY [R24Y] to YQSYFKTIEELQQKILCAKAENAL [R24L], the protein stability index falls from 2.6 to 1.77.

First: YQNYFKTIEELQQKILCAKAENAR [S3N]
Second: YQSYFKTIIELQQKILCAKAENAR [E9I]
The protein stability index of the first is higher: 2.23 for the first, 2 for the second.

First: YQSYFKTINELQQKILCAKAENAR [E9N]
Second: YQSYFKTIFELQQKILCAKAENAR [E9F]
The protein stability index of the first is higher: 2.45 for the first, 1.73 for the second.

Compared with YQSYFKTIEELQQKIDCAKAENAR [L16D], YQSYFKTIEELQQKICCAKAENAR [L16C] is lower in protein stability index: 1.96 for the first, 1.84 for the second.

Compared with YQSYFKTIEELQQKILCAKAEEAR [N22E], YQSYFKTIEELQQKILCAKAEGAR [N22G] is lower in protein stability index: 1.89 for the first, 1.36 for the second.

First: YQSYFKTIEELQQKILCAKAEQAR [N22Q]
Second: YQSYFPTIEELQQKILCAKAENAR [K6P]
The protein stability index of the first is higher: 2.09 for the first, 1.81 for the second.

Compared with YDSYFKTIEELQQKILCAKAENAR [Q2D], YCSYFKTIEELQQKILCAKAENAR [Q2C] is lower in protein stability index: 2.13 for the first, 1.88 for the second.

Going from YQSMFKTIEELQQKILCAKAENAR [Y4M] to YQSYFKTIEELQQKTLCAKAENAR [I15T], the protein stability index rises from 1.48 to 1.57.

Compared with YQSYFKTIEELQQKILCTKAENAR [A18T], YQSYFKTIEELQQKILCVKAENAR [A18V] is lower in protein stability index: 2.1 for the first, 1.88 for the second.

Compared with YQSYFKTIEELVQKILCAKAENAR [Q12V], YQSYFKTIEELDQKILCAKAENAR [Q12D] is higher in protein stability index: 1.55 for the first, 1.69 for the second.

Going from YQSYFKTIEYLQQKILCAKAENAR [E10Y] to YQSYFKTDEELQQKILCAKAENAR [I8D], the protein stability index falls from 2.74 to 2.59.
